# According to publication PMC11960969, “Mdga2 deficiency leads to an aberrant activation of BDNF/TrkB signaling that underlies autism-relevant synaptic and behavioral changes in mice” (PLOS Biology, 2025):
# B1: sp¦Q922B6¦TRAF7_MOUSE (protein, UniProt Q922B6 1-594, looked up)
# E3 ubiquitin-protein ligase …: MPPINTPRRSDSAISVRSLHSESSMSLRSTFSLPEEEEEPEPLVFAEQPSVKLCCQLCCSVFKDPVITTCGHTFCRRCALKSEKCPVDNAKLTVVVNNIAVAEQIGELFIHCRHGCHAAGTGKPGVFEVDPRGCPFTIKLSARKDHESSCDYRPVRCPNNPSCPPLLKMNLEAHLKECEHIKCPHSKYGCTFIGNQDTYETHLETCRFEGLKEFLQQTDDRFHEMHVALAQKDQEIAFLRSMLGKLSEKIDQLEKSLELKFDVLDENQSKLSEDLMEFRRDASMLNDELSHINARLNMGILGSYDPQQIFKCKGTFVGHQGPVWCLCVYSMGDLLFSGSSDKTIKVWDTCTTYKCQKTLEGHDGIVLALCIQGCKLYSGSADCTIIVWDIQNLQKVNTIRAHDNPVCTLVSSHNMLFSGSLKAIKVWDIVGTELKLKKELTGLNHWVRALVAAQSYLYSGSYQTIKIWDIRTLDCIHVLQTSGGSVYSIAVTNHHIVCGTYENLIHVWDIESKEQVRTLTGHVGTVYALAVISTPDQTKVFSASYDRSLRVWSMDNMICTQTLLRHQGSVTALAVSRGRLFSGAVDSTVKVWTC
# B2: sp¦P05532¦KIT_MOUSE (protein, UniProt P05532 25-979, looked up)
# Mast/stem cell growth factor …: SQPSASPGEPSPPSIHPAQSELIVEAGDTLSLTCIDPDFVRWTFKTYFNEMVENKKNEWIQEKAEATRTGTYTCSNSNGLTSSIYVFVRDPAKLFLVGLPLFGKEDSDALVRCPLTDPQVSNYSLIECDGKSLPTDLTFVPNPKAGITIKNVKRAYHRLCVRCAAQRDGTWLHSDKFTLKVRAAIKAIPVVSVPETSHLLKKGDTFTVVCTIKDVSTSVNSMWLKMNPQPQHIAQVKHNSWHRGDFNYERQETLTISSARVDDSGVFMCYANNTFGSANVTTTLKVVEKGFINISPVKNTTVFVTDGENVDLVVEYEAYPKPEHQQWIYMNRTSANKGKDYVKSDNKSNIRYVNQLRLTRLKGTEGGTYTFLVSNSDASASVTFNVYVNTKPEILTYDRLINGMLQCVAEGFPEPTIDWYFCTGAEQRCTTPVSPVDVQVQNVSVSPFGKLVVQSSIDSSVFRHNGTVECKASNDVGKSSAFFNFAFKGNNKEQIQAHTLFTPLLIGFVVAAGAMGIIVMVLTYKYLQKPMYEVQWKVVEEINGNNYVYIDPTQLPYDHKWEFPRNRLSFGKTLGAGAFGKVVEATAYGLIKSDAAMTVAVKMLKPSAHLTEREALMSELKVLSYLGNHMNIVNLLGACTVGGPTLVITEYCCYGDLLNFLRRKRDSFIFSKQEEQAEAALYKNLLHSTEPSCDSSNEYMDMKPGVSYVVPTKTDKRRSARIDSYIERDVTPAIMEDDELALDLDDLLSFSYQVAKGMAFLASKNCIHRDLAARNILLTHGRITKICDFGLARDIRNDSNYVVKGNARLPVKWMAPESIFSCVYTFESDVWSYGIFLWELFSLGSSPYPGMPVDSKFYKMIKEGFRMVSPEHAPAEMYDVMKTCWDADPLKRPTFKQVVQLIEKQISDSTKHIYSNLANCNPNPENPVVVDHSVRVNSVGSSASSTQPLLVHEDA
# B3: sp¦P97333¦NRP1_MOUSE (protein, UniProt P97333 22-923, looked up)
# Neuropilin-1: FRSDKCGGTIKIENPGYLTSPGYPHSYHPSEKCEWLIQAPEPYQRIMINFNPHFDLEDRDCKYDYVEVIDGENEGGRLWGKFCGKIAPSPVVSSGPFLFIKFVSDYETHGAGFSIRYEIFKRGPECSQNYTAPTGVIKSPGFPEKYPNSLECTYIIFAPKMSEIILEFESFDLEQDSNPPGGMFCRYDRLEIWDGFPEVGPHIGRYCGQKTPGRIRSSSGVLSMVFYTDSAIAKEGFSANYSVLQSSISEDFKCMEALGMESGEIHSDQITASSQYGTNWSVERSRLNYPENGWTPGEDSYKEWIQVDLGLLRFVTAVGTQGAISKETKKKYYVKTYRVDISSNGEDWISLKEGNKAIIFQGNTNPTDVVLGVFSKPLITRFVRIKPVSWETGISMRFEVYGCKITDYPCSGMLGMVSGLISDSQITASNQADRNWMPENIRLVTSRTGWALPPSPHPYTNEWLQVDLGDEKIVRGVIIQGGKHRENKVFMRKFKIAYSNNGSDWKTIMDDSKRKAKSFEGNNNYDTPELRTFSPLSTRFIRIYPERATHSGLGLRMELLGCEVEAPTAGPTTPNGNPVDECDDDQANCHSGTGDDFQLTGGTTVLATEKPTIIDSTIQSEFPTYGFNCEFGWGSHKTFCHWEHDSHAQLRWSVLTSKTGPIQDHTGDGNFIYSQADENQKGKVARLVSPVVYSQSSAHCMTFWYHMSGSHVGTLRVKLRYQKPEEYDQLVWMVVGHQGDHWKEGRVLLHKSLKLYQVIFEGEIGKGNLGGIAVDDISINNHISQEDCAKPTDLDKKNTEIKIDETGSTPGYEGEGEGDKNISRKPGNVLKTLDPILITIIAMSALGVLLGAVCGVVLYCACWHNGMSERNLSALENYNFELVDGVKLKKDKLNPQSNYSEA
# B4: sp¦Q3UH99¦SHSA6_MOUSE (protein, UniProt Q3UH99 31-525, looked up)
# Protein shisa-6: ARGRSGNRTLNAGAVGGRRAGGALARGGRELNSTARASGVPEAGSRRGQSAAAAAAAAAAASATVTYETCWGYYDVSGQYDKEFECNNSESGYLYCCGTCYYRFCCKKRHEKLDQRQCTNYQSPVWVQTPSTKVVSPGPENKYDPEKDKTNFTVYITCGVIAFVIVAGVFAKVSYDKAHRPPREMNIHRALADILRQQGPIPIAHCERETISAIDTSPKENTPVRSTSKNHYTPVRTAKQTPGDRQYNHPILSSATQTPTHEKPRMNNILTSATEPYDLSFSRSYQNLAHLPPSYESAVKTNPSKYSSLKRLTDKEADEYYMRRRHLPDLAARGTLPLNVIQMSQQKPLPRERPRRPIRAMSQDRVLSPRRGLPDEFGMPYDRILSDEQLLSTERLHSQDPLLSPERTAFPEQSLSRAISHTDVFVSTPVLDRYRMTKMHSHPSASNNSYATLGQSQTAAKRHAFASRRHNTVEQLHYIPGHHTCYTASKTEVTV
# B5: sp¦P60755¦MDGA2_MOUSE (protein, UniProt P60755 26-924, looked up)
# MAM domain-containing …: PPTVRIVHSGLACNIEEERYSERVYTIREGETLELTCLVTGHPRPQIRWTKTAGSASDRFQDSSVFNETLRITNIQRHQGGRYYCKAENGLGSPAIKSIRVDVYYLDDPVVTVHQSIGEAKEQFYYERTVFLRCVANSNPPVRYSWRRGQEVLLQGSDKGVEIYEPFFTQGETKILKLKNLRPQDYANYSCIASVRNVCNIPDKMVSFRLSNKTASPSIKLLVDDPIVVNPGEAITLVCVTTGGEPTPSLTWVRSFGTLPEKIVLNGGTLTIPAITSDDAGTYSCIANNNVGNPAKKSTNIIVRALKKGRFWITPDPYHKDDNIQIGREVKISCQVEAVPSEELTFSWFKNGRPLRSSERMVITQTDPDVSPGTTNLDIIDLKFTDFGTYTCVASLKGGGISDISIDVNISSSTVPPNLTVPQEKSPLVTREGDTIELQCQVTGKPKPIILWSRADKEVAMPDGTMQMESYDGTLRIVNVSREMSGMYRCQTSQYNGFNVKPREALVQLIVQYPPAVEPAFLEIRQGQDRSVTMSCRVLRAYPIRVLTYEWRLGNKLLRTGQFDSQEYTEYPLKSLSNENYGVYNCSIINEAGAGRCSFLVTGKAYAPEFYYDTYNPVWQNRHRVYSYSLQWTQMNPDAVDRIVAYRLGIRQAGQQRWWEQEIKINGNIQKGELITYNLTELIKPEAYEVRLTPLTKFGEGDSTIRVIKYTGEFHCGFEDGNICLFTQDDTDNFDWTKQSTATRNTKYTPNTGPSADRSGSKEGFYMYIETSRPRLEGEKARLLSPVFSIAPKNPYGPTNSAYCFSFFYHMYGQHIGVLNVYLRLKGQTTIENPLWSSSGNKGQRWNEAHVNIYPITSFQLIFEGIRGPGIEGDIAIDDVSIAEGECAKQDLPTKNSVD
# B6: sp¦Q3TBL6¦TP8L3_MOUSE (protein, UniProt Q3TBL6 1-204, looked up)
# Tumor necrosis factor …: MDSDSGEQSEGEPGTAAGPHVFSSKNLALQAQKKILSKIASKTVANMLIDDTSSEIFDELYKVTEIHTHNKKEAHKIMKDAIKVAIKIGILYRNKQFSQEEVIIVEKLRKKLNQTAMTMVSFYEVEYTFDTNVLSKLLHECKDLVHELVQRHLTPRTHGRINHVFNHFADVEFLSTLYGPHGNCRPNLKRICEGINKLLDDKIL
# System: hippocampal proteins
# Experiment: DIA quantification proteomics, hippocampus of Mdga2+/- vs WT mice
# Design: species or system mouse
# Conditions: Mdga2+/- vs WT mouse hippocampus (HET-HIP-VS-WT-HIP); S3 Table, downregulated DEPs; SE, pvalue and adj_pvalue in own columns c3-c5
# How it was run: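 Hippocampi from 1.5–2-month-old male Mdga2+/− mice and WT littermates; 100 μg protein trypsin-digested, peptides high-pH fractionated. DDA-built spectral library, DIA by nano-LC–MS/MS with Spectronaut and mProphet QC. DEPs called at fold change >1.1 and p <0.05.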
row,Molecule,log2FC
1,B1,-2.686
2,B2,-2.731
3,B3,-3.13
4,B4,-2.769
5,B5,-3.064
6,B6,-2.713

# Same assay, conditions: regulation class of the protein, HET-HIP-VS-WT-HIP; S3 Table, downregulated DEPs
row,Molecule,Class
1,B1,Down
2,B2,Down
3,B3,Down
4,B4,Down
5,B5,Down
6,B6,Down
